Article PMC11882444 (2025)

Biological target: LHC (LSD1-HDAC-CoREST complex) (Homo sapiens, UniProt O60341, UM171 and InsP6 present)
Experiment: dose-response titration of fluorescein-LHC

- Kd: 13 nM
B1: KBTBD4 (protein)
chain: MKGGNADSWQREKLASMESPEEPGASMDENYFVNYTFKDRSHSGRVAQGIMKLCLEEELFADVTISVEGREFQLHRLVLSAQSCFFRSMFTSNLKEAHNRVIVLQDVSESVFQLLVDYIYHGTVKLRAEELQEIYEVSDMYQLTSLFEECSRFLARTVQVGNCLQVMWLADRHSDPELYTAAKHCAKTHLAQLQNTEEFLHLPHRLLTDIISDGVPCSQNPTEAIEAWINFNKEEREAFAESLRTSLKEIGENVHIYLIGKESSRTHSLAVSLHCAEDDSISVSGQNSLCHQITAACKHGGDLYVVGGSIPRRMWKCNNATVDWEWCAPLPRDRLQHTLVSVPGKDAIYSLGGKTLQDTLSNAVIYYRVGDNVWTETTQLEVAVSGAAGANLNGIIYLLGGEENDLDFFTKPSRLIQCFDTETDKCHVKPYVLPFAGRMHAAVHKDLVFIVAEGDSLVCYNPLLDSFTRLCLPEAWSSAPSLWKIASCNGSIYVFRDRYKKGDANTYKLDPATSAVTVTRGIKVLLTNLQFVLA
